Experimental data reported in patent US20070092942A1, “Ubiquitin specific enzymes of family herpesviridae” (priority 2005, published 2007).

Biological target: T1, His6UL36^USP (Human herpesvirus 1, UniProt P10220)
T1 construct: amino acids 1 to 533 of the UL36 gene product from HHV HSV1; 6-His (pET-28a(+)) (N); 6-His (pET-28a(+)) (C); made in house; host or cells: E. coli BL21 or BL21 RIPL
Assay: Cleavage of Ub-AMC by recombinant UL36^USP
Format: biochemical, HSV-1
Conditions: ~0.1 pmol enzyme, Ub-AMC, 25° C.
Protocol: Recombinant UL36^USP and UL36^USP/C65A (˜0.1 pmol) were incubated in 125 μl kinetics buffer (50 mM HEPES, pH 7.5, 0.5 mM EDTA) supplemented with 1 mM DTT at room temperature for 10 minutes. To this was added 75 μl of Ub-AMC (250 nM in kinetics buffer) and AMC liberation was measured at 25° C. For inhibition experiments, one of UbVME, SUMO-VME, ISG15-VS, or Nedd8-VS (10 pmol) was incubated with recombinant UL36^USP (˜0.1 pmol) for 30 minutes at room temperature. To this was added 75 μl of Ub-AMC (250 nM in kinetics buffer) and AMC liberation was measured. Cleavage experiments were performed in triplicate. All fluorescence measurements were made using a Wallac Victor^3 1420 fluorescence/luminescence plate reader (Perkin Elmer) using 380 nm excitation and 460 nm emission wavelengths, with 5 second intervals between measurements. Data were exported as an Excel file and plotted as mean values of replicate experiments using Kaleidagraph v3.6 (Synergy Software).
In a typical eukaryotic cell, the presence of multiple DUBs, whose substrate pool and catalytic activities may overlap, confounds straightforward analysis of the activity of any one particular DUB. […] The proteins were expressed, purified over Ni-NTA resin and evaluated for their ability to cleave Ub C-terminal 7-amido-4-methylcoumarin (Ub-AMC) (Dang et al., 1998). […]

B1: His6UL36^USP: His-tagged recombinant 533 N-terminal amino acids of HSV-1 UL36, ubiquitin-specific cysteine protease (protein)
chain: MGGGNNTNPGGPVHKQAGSLASRAHMIAGTPPHSTMERGGDRDIVVTGARNQFAPDLEPGGSVSCMRSSLSFLSLIFDVGPRDVLSAEAIEGCLVEGGEWTRATAGPGPPRMCSIVELPNFLEYPGARGGLRCVFSRVYGEVGFFGEPAAGLLETQCPAHTFFAGPWALRPLSYTLLTIGPLGMGLFRDGDTAYLFDPHGLPEGTPAFIAKVRAGDMYPYLTYYTRDRPDVRWAGAMVFFVPSGPEPAAPADLTAAALHLYGASETYLQDEAFSERRVAITHPLRGEIAGLGEPCVGVGPREGVGGPGPHPPTAAQSPPPTRARRDDRASETSRGTAGPSAKPEAKRPNRAPDDVWAVALKGTPPTDPPSADPPSADPPSAIPPPPPSAPKTPAAEAAEEDDDDMRVLEMGVVPVGRHRARYSAGLPKRRRPTWTPPSSVEDLTSGEKTKRSAPPAKTKKKSTPKGKTPVGAAVPASVPEPVLASAPPDPAGPPVAEAGEDDGPTVPASSQALEALKTRRSPEPPGADLAQLF
modifications: left off: small tags and cut ends
notes: His-tagged recombinant 533 N-terminal amino acids of HSV-1 UL36, ubiquitin-specific cysteine protease
Turnover number for Ub-AMC cleavage: ~6 min⁻¹
